Experiments:
hGPVI-hFc fusion protein [1] = target: T1, hGPVI-hFc fusion protein (human); assay: competition ELISA, hGPVI-Fc on collagen-coated plates (FIG. 1A)
T1 construct: also called GPVI-Fc; human GPVI-Fc fusion protein
Experimental: (§1) A secondary screening was performed to characterize functional properties of all human GPVI-specific mAbs for their ability to block the binding of collagen to human GPVI-Fc fusion protein in a competition ELISA binding assay. Custom-made collagen coated 96-well plates (Pierce) were used. Pre-incubated mixture of human GPVI-Fc fusion protein and hybridoma supernatants were added to the plate and collagen-human GPVI-Fc complex was detected by using goat anti-human IgG-Fc conjugated with horseradish peroxidase (Sigma; #A0170). The antibody binding was visualized by adding TMB-H2O2 buffer and read at a wavelength of 450 nm. […] The blocking properties of pre-selected mAbs to human GPVI were confirmed to be dose-dependent using a competition ELISA assay as shown in FIG. 1A.

[2] = target: T2, human GPVI protein, soluble extracellular domain (D1 and D2) (human, UniProt Q9HCN6 21-267); assay: SPR (BIAcore 2000), mAb captured by anti-Fc, human GPVI in solution
T2 construct: extracellular domain; also called hGPVI; human glycoprotein VI
T2 sequence (looked up): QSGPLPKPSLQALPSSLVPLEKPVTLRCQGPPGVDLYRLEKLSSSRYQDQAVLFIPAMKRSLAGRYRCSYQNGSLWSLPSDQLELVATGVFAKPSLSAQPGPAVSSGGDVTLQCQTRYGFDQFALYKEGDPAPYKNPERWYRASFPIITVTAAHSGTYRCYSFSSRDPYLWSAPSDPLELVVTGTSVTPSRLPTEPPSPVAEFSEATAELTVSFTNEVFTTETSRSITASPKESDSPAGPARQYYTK
Experimental: A last screening was performed by Surface Plasmon Resonance (BIAcore 2000) to evaluate binding properties of GPVI blocking antibodies. In this analysis, we evaluated the interaction of the human GPVI protein with the anti-human GPVI mAbs fixed to anti-Fc antibody covalently linked to CM chips. Binding kinetics of the individual mAbs were performed using the protocol described by Canziani et al 2004. Anal. Biochem. 325: 301-307.

hGPVI-hFc fusion protein [3] = target: T1, hGPVI-hFc fusion protein; assay: DELFIA competition assay: IgG preincubated with GPVI-Fc (3 µg/ml), binding to collagen-coated plate, Test 1
Experimental: (§2) Collagen coated 384 well plates (Pierce) were blocked with 3% BSA for 2 h. Increasing concentrations of IgG or its corresponding Fab fragment produced by Ficin cleavage (0.3-20 μg/ml) were incubated with recombinant GPVI (Fc-fusion protein of the extracellular GPVI domain; 3 μg/ml) for 30 min. The GPVI-IgG mixture was added to collagen coated plates and incubated for 1 h at RT. Next, 384 well plates were washed (DELFIA wash buffer, Perkin Elmer) five times and Eu-labelled anti-human IgG (100 ng/ml Perkin Elmer) was added. Following 1 h incubation at room temperature plates were washed again five times, enhancement solution (Perkin Elmer) was added and incubated for 10 min. Fluorescence was detected at 360/612 nm using a Tecan Ultra reader.

hGPVI-hFc fusion protein [4] = target: T1, hGPVI-hFc fusion protein; assay: DELFIA competition assay: IgG preincubated with GPVI-Fc (3 µg/ml), binding to collagen-coated plate, Test 2
Experimental: as §2

[5] = target: T3, primate GPVI-Fc fusion protein (Macaca fascicularis) (Macaca fascicularis (cynomolgus), UniProt Q9HCN6 21-205 (human entry)); assay: competition ELISA against Maccaca GPVI-Fc: inhibition by purified IgG of the binding of GPVI-Fc to collagen; blocked ligand: collagen
T3 construct: also called Maccaca GPVI-Fc; primate GPVI-Fc protein; not shown: Fc part of the primate GPVI-Fc fusion is not described
T3 chain: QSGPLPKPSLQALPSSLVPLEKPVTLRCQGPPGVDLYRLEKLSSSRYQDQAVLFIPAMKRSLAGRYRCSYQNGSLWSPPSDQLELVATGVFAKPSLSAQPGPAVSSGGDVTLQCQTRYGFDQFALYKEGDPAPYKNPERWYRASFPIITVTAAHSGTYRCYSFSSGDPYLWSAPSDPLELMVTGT

hGPVI-hFc fusion protein [6] = target: T1, hGPVI-hFc fusion protein; assay: competition ELISA: purified IgG pre-incubated with hGPVI-Fc, mixture added to collagen-coated plate, bound GPVI-Fc detected with anti-human IgG-Fc-HRP (OD 450 nm); blocked ligand: collagen
Experimental: as §1

hGPVI-hFc fusion protein [7] = target: T1, hGPVI-hFc fusion protein; assay: DELFIA competition assay: Fab preincubated with GPVI-Fc (3 µg/ml), binding to collagen-coated plate, Test 1
Experimental: as §2

hGPVI-hFc fusion protein [8] = target: T1, hGPVI-hFc fusion protein; assay: DELFIA competition assay: Fab preincubated with GPVI-Fc (3 µg/ml), binding to collagen-coated plate, Test 2
Experimental: as §2

[9] = target: T2, human GPVI protein, soluble …; assay: SPR (Biacore 3000), Fab immobilised, human GPVI analyte
Experimental: Surface plasmon resonance technology on a Biacore 3000 (GE Healthcare) was used for detailed kinetic characterization of purified antibody fragments. A direct binding assay was used with the anti-GPVI Fab as the ligand and human GPVI as analyte. Typically, 500 RU of anti-GPVI Fab were immobilized on a research grade CM5 chip by amine reactive coupling, resulting in an Rmax of 200 RU for the bound GPVI molecule. Binding kinetics were measured over a concentration range typically between 0.8 to 208 nM in HBS-EP (10 mM HEPES pH 7.4, 150 mM NaCl, 3 mM EDTA, 0.005% Surfactant P20) at a flow rate of 30 μl/min. Chip surfaces were regenerated with 10 mM glycine pH 2.0. Kinetic parameters were analyzed and calculated in the BIAevaluation program package (version 4.1) using a flow cell without immobilized Fab as reference. A 1:1 binding model with mass transfer was applied for a global fit of the data for curves.

[10] = target: T2, human GPVI protein, soluble …; assay: SPR (Biacore 3000), human GPVI immobilised, Fab analyte
Experimental: Surface plasmon resonance technology on a Biacore 3000 (GE Healthcare) was used for detailed kinetic characterisation of purified antibody fragments. An assay with immobilised human GPVI was used. Typically, 300 RU of GPVI were immobilised on a research grade CM5 chip by amine reactive coupling, resulting in an Rmax of 200 RU for the bound antibody fragment. Binding kinetics were measured over a concentration range between 3.2 to 112 nM in HBS-EP (10 mM HEPES pH 7.4, 150 mM NaCl, 3 mM EDTA, 0.005% Surfactant P20) at a flow rate of 30 μl/min. Chip surfaces were regenerated with 10 mM glycine pH2.0. Kinetic parameters were analysed and calculated in the BIAevaluation program package (version 4.1) using a flow cell without immobilised GPVI as reference. A 1:1 binding model with mass transfer was applied for a global fit of the data for curves corresponding to analyte concentrations from 3-56 nM of Fab fragment.
Note that the Biacore assay used to measure the data in this example is different in terms of immobilized binding partner (GPVI versus the mAb/Fab fragment) and this leads to the different Biacore affinities as reported in Table 5.

B1: anti-GPVI mAb from hybridoma clone 390 (antibody, mouse IgG1, kappa, V domains shown)
VH: QVQLKESGPGLVAPSQSLSITCTVSGFSLTGYGVNWVRQPPGKGLEWLGMIWGDGSTDYNSTLKSRLSISKDNSKSQVFLKMNSLQTDDTARYYCARDLPMDYWGQGTSVTVSS
VL: DIQMTQSPSSLSASLGGKVTITCKASQDINKYIAWYQHKPGKGPSLLIHYTSTLQPGIPSRFSGSGSGRDYSFSISNLEPEDIATYYCLQYANLLTFGGGTKLEIKR
modifications: N-glycosylation site (NST) in the heavy chain variable region is occupied
notes: Mouse IgG1, kappa, purified from hybridoma; also called monoclonal antibody from clone 390; IgG from hybridoma clone 390
- IC50 (hGPVI-hFc fusion protein [1]): < 10 µg/mL
- Kd [2]: 40 pM
- koff [2]: 4e-06 s⁻¹
- kon [2]: 108000 M⁻¹ s⁻¹
- IC50 (hGPVI-hFc fusion protein [3]): 5.6 µg/mL
- IC50 (hGPVI-hFc fusion protein [4]): 5 µg/mL
- IC50 (read off the curve) [5]: ~5 µg/mL
- IC50 (read off the curve) (hGPVI-hFc fusion protein [6]): ~3 µg/mL

B2: Fab produced by Ficin cleavage of IgG from hybridoma clone 390 (Fab, V domains shown)
VH: QVQLKESGPGLVAPSQSLSITCTVSGFSLTGYGVNWVRQPPGKGLEWLGMIWGDGSTDYNSTLKSRLSISKDNSKSQVFLKMNSLQTDDTARYYCARDLPMDYWGQGTSVTVSS
VL: DIQMTQSPSSLSASLGGKVTITCKASQDINKYIAWYQHKPGKGPSLLIHYTSTLQPGIPSRFSGSGSGRDYSFSISNLEPEDIATYYCLQYANLLTFGGGTKLEIKR
notes: Proteolytic Fab; also called Fab (Ficin cleavage); proteolytic Fab fragment
- IC50 (hGPVI-hFc fusion protein [7]): 1.3 µg/mL
- IC50 (hGPVI-hFc fusion protein [8]): 1.1 µg/mL

B3: Fab 390-nG (recombinant non-glycosylated Fab of clone 390) (Fab, V domains shown)
VH: QVQLKESGPGLVAPSQSLSITCTVSGFSLTGYGVNWVRQPPGKGLEWLGMIWGDGSTDYQSTLKSRLSISKDNSKSQVFLKMNSLQTDDTARYYCARDLPMDYWGQGTSVTVSS
VL: DIQMTQSPSSLSASLGGKVTITCKASQDINKYIAWYQHKPGKGPSLLIHYTSTLQPGIPSRFSGSGSGRDYSFSISNLEPEDIATYYCLQYANLLTFGGGTKLEIKR
notes: Chimeric Fab from HEK293: VL fused to human constant kappa (IGKC, Q502W4); also called ANTI-GPVI Fab 390-nG construct
- Kd [9]: 60 pM
- koff [9]: 2.2e-05 s⁻¹
- kon [9]: 348000 M⁻¹ s⁻¹
- Kd [10]: 200 pM
- koff [10]: 2e-05 s⁻¹
- kon [10]: 102000 M⁻¹ s⁻¹
